Laboratory results reported in publication PMC6323126.

B1: FHA domain (residues 5–135) of SLMAP [human] / MST2 kinase domain (residues 1–308) [human] (parent)
chain 1: LAIFTCRPNSHPFQERHVYLDEPIKIGRSVARCRPAQNNATFDCKVLSRNHALVWFDHKTGKFYLQDTKSSNGTFINSQRLSRGSEESPPCEILSGDIIQFGVDVTENTRKVTHGCIVSTIKLFLPDGMEA
chain 2: MEQPPAPKSKLKKLSEDSLTKQPEEVFDVLEKLGEGSYGSVFKAIHKESGQVVAIKQVPVESDLQEIIKEISIMQQCDSPYVVKYYGSYFKNTDLWIVMEYCGAGSVSDIIRLRNKTLIEDEIATILKSTLKGLEYLHFMRKIHRDIKAGNILLNTEGHAKLADFGVAGQLTDTMAKRNTVIGTPFWMAPEVIQEIGYNCVADIWSLGITSIEMAEGKPPYADIHPMRAIFMIPTNPPPTFRKPELWSDDFTDFVKKCLVKNPEQRATATQLLQHPFIKNAKPVSILRDLITEAMEIKAKRHEEQQRE

Variants of: B1
Assay: BLI
Settings: with MST2 kinase domain (residues 1–308) [human]; read at the end of association (about 360 s); parent: 2.1; read off a plot

| Variant | response |
| --- | --- |
| chain 1 LAIFTCRPNSHPFQERHVYLDEPIKIGRSVARCRPAQNNATFDCKVLSANHALVWFDHKTGKFYLQDTKSSNGTFINSQRLSRGSEESPPCEILSGDIIQFGVDVTENTRKVTHGCIVSTIKLFLPDGMEA [chain 1 R49A] | 0.57 nm |
